Results taken from US20240158515A1, “ANTI-FGFR3 ANTIBODIES AND ANTIGEN-BINDING FRAGMENTS AND METHODS OF USE THEREOF” (Regeneron Pharmaceuticals, Inc., priority 2022, published 2024).

Experiments:
[1] = test system: CD73 protein level in UMUC14 cells; test: CD73 expression in UMUC14 cells in vitro, Western blot; type: cell-based; settings: 1 nM, 10 nM, 100 nM, 48 hrs, FIG. 6
Protocol: To investigate the effect of anti-FGFR3 antibody or tyrosine kinase inhibitor (AZD4547; commercially available) on CD73 expression, UMUC14 bladder cancer cells were seeded in 6 well tissue culture plate (Corning) in complete medium (MEM medium with 10% FBS, 1% Non-Essential Amino Acids, Pen/Strep) and cultured overnight at 37° C. 5% CO2. Cells were then treated with antibodies or inhibitors at indicated concentration (100 nM, 10 nM or 1 nM) for 48 hrs. Cells were washed with pre-chilled PBS and collected in lysis buffer containing protease and phosphatase inhibitors. Equal amount of cell lysates were analyzed by SDS-PAGE. Blots were blocked in 0.5% Tween 20 in Tris buffered saline (TBS) containing 5% non-fat dry milk followed by overnight incubation with anti-CD73 primary antibody (Cell Signaling Technology). After washing 3× with TBST and incubation with secondary antibody, membranes were developed with SuperSignal West Pico or Femto substrate and luminescence images were captured with a C300 imager (Azure Biosystems).

[2] = test system: BaF3 cells expressing FGFR3 S249C; test: BaF3 proliferation assay, FGFR3 S249C (TKI resistance study); type: cell-based, murine; settings: 72 h, CellTiter-Glo, FIG. 12A left; read-out: IC50, growth of BaF3 cells expressing FGFR3 S249C
Protocol: (§1) IL-3 dependent murine pro B cell line BaF3 cells were engineered to stably express full length human FGFR3b S249C, V557L, V557M, S249C/V557L, S249C/V557M (accession number for WT FGFR3b NP_001156685.1, amino acids M1-T808). Cells were maintained in RPMI 1640+10% FBS+P/S/G+1 ng/ml mouse IL-3+500 ug/ml Neomycin; 37° C. 5% CO2. For proliferation assays, cells were washed with IL-3-free culture media and plated at 10^5 cells/well into 96-well black wall tissue culture plates. Cells were treated with 1:3 serially diluted antibody as indicated in the presence or absence of 5 μg/ml heparin and 1 nM human FGF1. After addition of antibodies, cells were incubated at 37° C./5% CO2 for 72 h followed by the addition of an equal volume of CellTiter-Glo™ (Promega) reagent to lyse cells and detect luciferase activity. Luminescence signal was quantitated with Envision plate reader (PerkinElmer). EC50 values of the antibodies were determined using GraphPad Prism software.

[3] = test system: CD73 protein level in Fadu S249C tumors; test: CD73 expression in Fadu S249C tumors in vivo, Western blot; set-up: species or system SCID mice; settings: FGFR3 mAb 15 mg/kg one intraperitoneal dose; AZD4547 25 mg/kg daily gavage; FIG. 11A-11B
Protocol: To test the effect of anti-FGFR3 inhibitory antibody or tyrosine kinase inhibitor (AZD4547) on CD73 expression in vivo, tumor cells (5×10^6 UMUC14, 3×10^6 Fadu EV or S249C, in 50% Matrigel) were implanted subcutaneously into the right flank of 6 to 8-week-old female SCID mice (Jackson Laboratory). Once tumors were established (˜200 mm^3 in volume), mice were randomized into treatment groups (n=5-6 mice per group) and injected intraperitoneally once with anti-FGFR3 antibodies (15 mg/kg) or isotype control. Tyrosine kinase inhibitor AZD4547 (25 mg/kg) was administered once daily by oral gavage for 3 days. Tumors were collected 4 days post treatment initiation. Tumors were collected, snap frozen and lysed in RIPA buffer. Equal amount of tumor lysates were analyzed by SDS-PAGE and blotted with anti-CD73 and anti-FGFR3 antibodies as described above. Membranes were developed with SuperSignal West Pico or Femto substrate and luminescence images were captured with a C300 imager (Azure Biosystems). Intensity of each CD73 and actin band was quantitated using Image J (NIH), and the ratio of CD73/actin for each sample were graphed using Prism Graphpad.

[4] = test system: BaF3 cells expressing FGFR3 S249C/V557M; test: BaF3 proliferation assay, FGFR3 S249C/V557M; type: cell-based, murine; settings: FIG. 12B
Protocol: as §1

[5] = test system: BaF3 cells expressing FGFR3 S249C/V557L; test: BaF3 proliferation assay, FGFR3 S249C/V557L; type: cell-based, murine; settings: FIG. 12A right
Protocol: as §1

[6] = biological target: T1, human FGFR3b (hFGFR3b.mmH, REGN3152) (Homo sapiens, UniProt P22607); test: Biacore SPR binding kinetics, monomeric human FGFR3b to captured antibodies; settings: 25° C.
T1 construct: REGN3152 (human FGFR3b expressed with a C-terminal myc-myc-hexahistidine tag)
T1 sequence (P22607 with tags, fused parts or gaps isoform P22607-2): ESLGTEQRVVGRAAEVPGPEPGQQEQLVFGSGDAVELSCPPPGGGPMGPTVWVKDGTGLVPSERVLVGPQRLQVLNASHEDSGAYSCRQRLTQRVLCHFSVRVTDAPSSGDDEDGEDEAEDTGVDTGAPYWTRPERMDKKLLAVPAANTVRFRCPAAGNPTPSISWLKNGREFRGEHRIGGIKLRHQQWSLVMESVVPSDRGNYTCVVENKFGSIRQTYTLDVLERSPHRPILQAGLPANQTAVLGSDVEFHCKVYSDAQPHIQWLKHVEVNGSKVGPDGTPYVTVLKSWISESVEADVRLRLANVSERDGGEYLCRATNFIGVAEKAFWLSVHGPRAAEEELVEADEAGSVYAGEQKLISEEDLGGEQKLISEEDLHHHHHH
Protocol: (§2) Biacore binding kinetics of anti-FGFR3 antibodies, in an antibody capture format, to monomeric human FGFR3b, cynomolgus FGFR3b, murine FGFR3b, human FGFR3c, and dimeric human FGFR3b ecto domain recombinant proteins at 25° C. were analyzed.
(§3) Equilibrium dissociation constants (KD values) for human FGFR3b expressed with a C-terminal myc-myc-hexahistidine tag (hFGFR3b.mmH, REGN3152) or cynomolgus FGFR3b expressed with a C-terminal myc-myc-hexahistidine tag (mfFGFR3b.mmH, REGN3521), or murine FGFR3b expressed with a C-terminal myc-myc-hexahistidine tag (mFGFR3b.mmH, REGN3215) or human FGFR3c expressed with a C-terminal myc-myc-hexahistidine tag (hFGFR3c.mmH, REGN3155) or human FGFR3b expressed with an C-terminal murine Fc tag (hFGFR3b.mFc, REGN3153) binding to purified anti-FGFR3 antibodies were determined using a real-time surface plasmon resonance biosensor technology using a Biacore 3000 or Biacore 4000 instrument. […] Antibody-reagent association was monitored for 5 minutes while dissociation in HBS-EP running buffer was monitored for 10 minutes. […]
(§4) The specific SPR-Biacore sensorgrams were obtained by a double referencing procedure. […] Kinetic association (ka) and dissociation (kd) rate constants were determined by fitting the real-time sensorgrams to a 1:1 binding model using Scrubber v2.0c curve fitting software. […]

[7] = biological target: T2, hFGFR3c-hFc binding to hFGF acidic protein (Homo sapiens, UniProt P22607); test: ELISA blocking of hFGFR3c-hFc binding to hFGF acidic
T2 construct: hFGFR3c extracellular domain (amino acids Glu23-Gly375); purchased R&D Systems 766-FR-050
T2 sequence (P22607 23-375): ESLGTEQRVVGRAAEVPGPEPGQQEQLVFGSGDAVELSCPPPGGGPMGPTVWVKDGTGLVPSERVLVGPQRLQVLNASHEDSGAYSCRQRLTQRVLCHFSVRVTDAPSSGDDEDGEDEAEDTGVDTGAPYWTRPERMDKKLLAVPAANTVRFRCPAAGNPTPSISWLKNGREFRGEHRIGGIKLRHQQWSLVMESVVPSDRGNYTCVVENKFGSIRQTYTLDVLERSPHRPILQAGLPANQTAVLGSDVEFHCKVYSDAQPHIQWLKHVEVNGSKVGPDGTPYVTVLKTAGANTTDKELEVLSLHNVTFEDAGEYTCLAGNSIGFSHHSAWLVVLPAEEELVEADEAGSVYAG
Excerpt: (§5) An ELISA-based blocking assay was developed to determine the ability of anti-FGFR3 antibodies to block the binding of human fibroblast growth factor receptor 3 isoform b (hFGFR3b) or human fibroblast growth factor receptor 3 isoform c (hFGFR3c) to human fibroblast growth factor acidic (hFGF acidic) or basic (hFGF basic) ligands.
(§6) The human FGFR3b recombinant protein used in the experiments had the hFGFR3b extracellular domain (amino acids E23-G377) expressed with the Fc portion of the mouse IgG2a at the C-terminus (amino acids E98-K330) (hFGFR3b-mFc, accession #NM_001163213.1). The hFGFR3c and hFGF acidic proteins were purchased commercially. […]
(§7) In the blocking assay, a 96-well microtiter plate was coated with either hFGF acidic or hFGF basic proteins at […] in PBS+10 mg/ml heparin overnight at 4° C. […] After a 1 hour incubation at room temperature, plates were washed, and plate-bound hFGFR3b-mFc or hFGFR3c-hFc proteins were detected with horseradish peroxidase (HRP) conjugated goat anti-mouse or goat anti-human Fcγ fragment specific antibodies. The plates were then developed using TMB substrate solution (BD Biosciences) according to the manufacturer's recommended procedure and absorbance at 450 nm was measured on a Victor X5 plate reader.
(§8) Binding data were analyzed using a sigmoidal (four-parameter logistic) dose-response model using GraphPad Prism software. […]

[8] = biological target: T3, human FGFR3c (hFGFR3c.mmH, REGN3155) (Homo sapiens, UniProt P22607); test: Biacore SPR binding kinetics, monomeric human FGFR3c to captured antibodies; settings: 25° C.
T3 construct: REGN3155 (human FGFR3c expressed with a C-terminal myc-myc-hexahistidine tag)
T3 sequence (P22607 with tags, fused parts or gaps): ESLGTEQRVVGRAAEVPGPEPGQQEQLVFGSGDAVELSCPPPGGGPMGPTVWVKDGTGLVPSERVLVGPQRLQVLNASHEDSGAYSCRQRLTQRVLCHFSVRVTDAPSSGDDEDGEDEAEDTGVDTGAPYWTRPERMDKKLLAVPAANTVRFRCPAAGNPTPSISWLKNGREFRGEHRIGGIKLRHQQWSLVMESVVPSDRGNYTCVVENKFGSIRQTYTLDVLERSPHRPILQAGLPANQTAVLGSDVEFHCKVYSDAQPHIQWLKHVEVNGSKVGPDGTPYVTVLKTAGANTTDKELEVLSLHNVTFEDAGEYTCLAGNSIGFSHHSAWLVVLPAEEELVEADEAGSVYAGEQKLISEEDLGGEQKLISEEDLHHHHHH
Protocol: as §2, §3, §4

[9] = biological target: T4, hFGFR3c-hFc binding to hFGF basic protein (Homo sapiens, UniProt P22607); test: ELISA blocking of hFGFR3c-hFc binding to hFGF basic
T4 construct: hFGFR3c extracellular domain (amino acids Glu23-Gly375); purchased R&D Systems 766-FR-050
T4 sequence (P22607 23-375): T2 sequence (P22607 23-375)
Excerpt: as §5, §6, §7, §8

Row | Substance | CD73 expression in UMUC14 cells in vitro (in words) [1] | IC50 [2] [nM] | CD73 expression in Fadu S249C tumors in vivo (in words) [3] | growth inhibition of BaF3 cells expressing FGFR3 S249C+V557M (in words) [4] | growth inhibition of BaF3 cells expressing FGFR3 S249C+V557L (in words) [5] | ka [6] [M⁻¹ s⁻¹] | kd [6] [s⁻¹] | Antibody blocking 0.4 nM hFGFR3c-hFc binding to hFGF acidic protein, % Blocking at 200 nM mAb [7] [%] | ka [8] [M⁻¹ s⁻¹] | kd [8] [s⁻¹] | Antibody blocking 7 nM hFGFR3c-hFc binding to hFGF basic protein, % Blocking at 200 nM mAb [9] [%]
1 | AZD4547 [reference compound] | dose dependent downregulation of CD73 expression | 9.9 | decreased expression of CD73 relative to mice treated with control | ineffective | ineffective |  |  |  |  |  | 
2 | REGN6331: comparator; relates to FGFR3b mAb, hIgG1 (mAb 184.6.1 N54S, Genentech); HC SEQ ID NO: 244, LC SEQ ID NO: 243 [reference compound] |  |  |  |  |  | 883000 | 0.000616 | 86 | 544000 | 0.00132 | 87
